Results published in patent US20050202434.

Target: T1, metallo-beta-lactamase (beta-lactamase II) 5/B/6 (Bacillus cereus) (UniProt P14488)
T1 sequence: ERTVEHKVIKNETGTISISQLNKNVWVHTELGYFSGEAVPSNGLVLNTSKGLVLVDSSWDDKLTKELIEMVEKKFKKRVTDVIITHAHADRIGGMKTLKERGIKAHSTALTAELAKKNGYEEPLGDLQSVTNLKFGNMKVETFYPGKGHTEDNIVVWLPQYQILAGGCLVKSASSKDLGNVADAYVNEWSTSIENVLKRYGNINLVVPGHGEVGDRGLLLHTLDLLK
Assay: inhibition

Sequence | activity (% control activity)
ANCNANNNTTNNNTNGNNGNNCATNNNNAA [round 16 SELEX pool (consensus 30N)] | 47
GCGCCATATGCGCGCGNNNNNNNNNNNNNNNNNNNNNNNNNNNNNNCGCGCGGAGCTCGCG [initial random 61-mer pool] | 100
